Data as given in the supplement of paper PMC12764529.
± gives the half width of the 95% confidence interval.

Key:
[1] = folding stability dG unfold from chymotrypsin proteolysis; higher = more stable
In short: (§1)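 K50 was inferred by Bayesian fitting of sequencing counts obtained after protease digestion of designed mini-proteins. Unfolding free energy was derived by comparison with a sequence-predicted unfolded-state K50 and a shared folded-state K50, for each protease or both combined. The mini-proteins were under 80 residues, had no cysteine, were carried in a PA-tagged cDNA display construct, and were kept only if AlphaFold2 dimer inter-PAE exceeded 15.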

[2] = folding stability dG unfold from trypsin proteolysis; higher = more stable
In short: as §1

[3] = folding stability dG unfold (combined trypsin and chymotrypsin); higher = more stable
In short: as §1

| Sequence | folding stability dG unfold [1] [kcal/mol] | folding stability dG unfold [2] [kcal/mol] | folding stability dG unfold [3] [kcal/mol] |
| --- | --- | --- | --- |
| SAGGSAGGGMRIDDIDIKQDPGNPNRYKITIKFDGPPIEFTVPPGEPLPIRFPDGKPLFEIPIDSAGGSAGG [r6_922_TrROS] | 0.486 ± 0.16 | 0.312 ± 0.062 | 0.479 ± 0.068 |
| SAGGSAGGGMSMEELKTVDYPLVVTVPLPDGSTVTVSAKVPAEDLDKAIPEVEERAKALAEEGASAGGSAGG [r6_903_JUSTAS] | 1.26 ± 0.038 | -0.194 ± 0.053 | 0.843 ± 0.059 |
| SAGGSAGGGMTAEELAAKAIEEALKAGETVTVEIEVTNPNGETFTLELTLVVVDPDDPEALEALSAGGSAGG [r6_534_TrROS_Hall] | 1.29 ± 0.014 | 1.64 ± 0.057 | 1.49 ± 0.05 |
| SAGGSAGGGMTLQITSIIEIKKPPDGPVVKFTVAGPGTTRTVTINLPENEIKPTTPIPLSRVLSSAGGSAGG [r6_585_JUSTAS] | 0.968 ± 0.48 | 1.86 ± 0.13 | 1.57 ± 0.31 |
| SAGGSAGGGNVYVKIEIYPYDPKNGEPQEQDITIPFETKEDAKDEIEKLLNMPNGMWIKIEVVDSAGGSAGG [r7_0_TrROS] | 1.47 ± 0.035 | 1.31 ± 0.053 | 1.47 ± 0.12 |
| SAGGSAGGGPDPSLPPPEVIEVVLPPDTLFRPPGGGYLSPEEVVELAKELEEREGIKATVTIRPSAGGSAGG [r6_162_JUSTAS] | 0.588 ± 0.095 | 1 ± 0.09 | 0.823 ± 0.15 |
| SAGGSAGGGPPLPPPVLVLPARVERVFYDPVTGELTVETVDFPVVIRPDGSVYLGDRWIPPELLSAGGSAGG [r6_514_TrMRF] | 1.85 ± 0.12 | 1.23 ± 0.046 | 1.61 ± 0.2 |
| SAGGSAGGGPPNAPLKIYTDDGSVNLLNLDGQPLLVTVHPDATAEITLPDGTKITVPIPPGANLSAGGSAGG [r6_105_TrMRF] | 0.628 ± 0.054 | 1.26 ± 0.072 | 0.977 ± 0.069 |
| SAGGSAGGGSISIPGPGPVSATTDPVTKTLVTVTYPTSEVRIPIEGDKFTEAETTPLPPPPALTSAGGSAGG [r6_847_JUSTAS] | 1.08 ± 0.036 | -0.16 ± 0.1 | 0.708 ± 0.072 |
| SAGGSAGGGSLKYTPGVHRLTYYDPATGTTTTLTFTSEEEALEYLKKKYPDVPWKRNPDGTWVLSAGGSAGG [r6_288_JUSTAS] | 2.15 ± 0.12 | 1.62 ± 0.059 | 2.08 ± 0.25 |
| SAGGSAGGGSMGSVSVSETTTTSTEGSTTTTTTVHTTTVGGTTTTTTTTTTTSPTPGASSPATASAGGSAGG [r6_684_JUSTAS] | 1.71 ± 0.043 | 2.01 ± 0.065 | 1.85 ± 0.047 |
| SAGGSAGGGSMSMPVTTKLVEEYTFPGTKEEAEEFLKKKLPPNYQVEITETPDSIKVKVYKVEGSAGGSAGG [r6_953_JUSTAS] | 2.36 ± 0.042 | 2.31 ± 0.053 | 2.38 ± 0.057 |
| SAGGSAGGGSMSVSYDPSTGNTITTTTTRSPTPLTTTTTTTTFPDGSTSTSTTTTAAPPPAPTTSAGGSAGG [r6_955_JUSTAS] | 0.716 ± 0.024 | 0.833 ± 0.029 | 0.761 ± 0.046 |
| SAGGSAGGGWITIPIYIIKMKRTRRDPDGKPKPLDPNDPEDFEVVPPRPFRIPLPPEEAKKLLKSAGGSAGG [r6_219_TrROS] | -0.464 ± 0.43 | -0.542 ± 0.32 | -0.434 ± 0.24 |
| SAGGSAGGIEVKIEGEIKPVKVTVSFSTANGDGNPKEYPVEKTYLVVDIKIEVNSPEAAKKINISAGGSAGG [r6_149_TrMRF] | 3 ± 0.13 | 1.37 ± 0.058 | 2.51 ± 0.14 |
| SAGGSAGGIIVWFPFDDIDELIKNGNIDEVEISRDPNDWFRFTPEIRPPPPPPPEQLAKNNKKNSAGGSAGG [r6_279_TrROS] | 0.493 ± 0.11 | 1.03 ± 0.16 | 0.735 ± 0.22 |
| SAGGSAGGIKPGETVLIVFKDKPEILVFPPGMSEEERKAFPGAKFILVKVEKPELTEEELKALESAGGSAGG [r6_830_TrROS_Hall] | -0.275 ± 0.18 | -0.623 ± 0.13 | -0.232 ± 0.16 |
| SAGGSAGGIRINPENGQIYFPLENGKAKSVPFKPGQEREIPNGWRITIKPDPPGPWEIEVKPLDSAGGSAGG [r6_296_TrROS] | -0.578 ± 0.61 | -0.509 ± 0.42 | -0.499 ± 0.22 |

| Sequence | folding stability dG unfold [1] [kcal/mol] | folding stability dG unfold [2] [kcal/mol] | folding stability dG unfold [3] [kcal/mol] |
| --- | --- | --- | --- |
| SAGGSAGGKAKIKKIEVELNEDGTLKVTAYDEETNEKITLEVKLPKPKPVYFDEEKLKEELEKKSAGGSAGG [r6_627_TrROS_Hall] | 0.963 ± 0.14 | -0.313 ± 0.19 | 0.629 ± 0.19 |
| SAGGSAGGKGKLVDEPPIRDPNNGKDVWAFIMDPDGRMEVYDPNEIEEIPLKPGQIMIFTPEDLSAGGSAGG [r6_627_TrROS] | 0.168 ± 0.34 | 0.757 ± 0.069 | 0.648 ± 0.16 |
| SAGGSAGGKISKEDLEKILEAIKEGKPITIVKVKVEKNENGEEVEKVEVIKTFTAEELKKLGIESAGGSAGG [r6_402_TrROS_Hall] | 1.61 ± 0.073 | 1.73 ± 0.14 | 1.43 ± 0.2 |
| SAGGSAGGKITPEMEKLKKEIADAIKKAFPNKDLKIEVIKIEKTKDGSVIIDIKIGDKIIRIKASAGGSAGG [r6_494_TrMRF] | 1.85 ± 0.12 | 2.58 ± 0.14 | 2.16 ± 0.19 |
| SAGGSAGGKKIKIEIIYDKENNKLYIYVVDENTKKVYRYEFNKNGKLIKVEPVKEVKPGEVIPLSAGGSAGG [r6_148_TrROS_Hall] | 2.49 ± 0.16 | 1.96 ± 0.15 | 2.32 ± 0.22 |
| SAGGSAGGKKKIKPPEVTIKIKNKDGSVFEAKITKVEYDEETKKLYLEIEIEVNGKKYKLTIELSAGGSAGG [r6_962_TrROS_Hall] | 4.49 ± 0.26 | 2.87 ± 0.16 | 4.16 ± 0.76 |
| SAGGSAGGKKKVKYYKIKEVKIEKDEDGNYTITVKVDGKTFTITIPKEKIKPGMKLKDIVIKIKSAGGSAGG [r6_255_TrROS_Hall] | 3.57 ± 0.038 | 1.91 ± 0.041 | 3.16 ± 0.11 |
| SAGGSAGGKKKYLVKITIKYVDKKTGKLVKEETITVEVSEEELEELLKKLPPGAEITKIEIYKLSAGGSAGG [r6_776_TrROS_Hall] | 3.58 ± 0.071 | 2.96 ± 0.13 | 3.4 ± 0.071 |
| SAGGSAGGKKLEELKEKLKKLKPKPELEVEIKIVMSKEEAEKLAKELEKLPNIKKVRVEILEPDSAGGSAGG [r6_284_TrROS_Hall] | -0.0934 ± 0.11 | -0.155 ± 0.069 | 0.0502 ± 0.17 |
| SAGGSAGGKKNNKPKPILVKIEIINKNGKKKVFTKEFKSLEEAKKFIEKALPKGYSAKIEIIPGSAGGSAGG [r6_289_TrMRF] | 3.36 ± 0.062 | 2.25 ± 0.2 | 3.18 ± 0.29 |
| SAGGSAGGKKPPKIKVIYIKADSPEALKKLKIKAKPGDTILIYVDGKLYRLTVIDGKIKIEELPSAGGSAGG [r6_550_TrROS_Hall] | 3.73 ± 0.065 | 2.12 ± 0.089 | 3.35 ± 0.14 |
| SAGGSAGGKKPVYEIEITTKDGSKLTIAVKEGEEVEIKITVNGKEISLEDITSIEIRPVELPEESAGGSAGG [r6_222_TrROS_Hall] | 1.84 ± 0.089 | 1.99 ± 0.16 | 1.94 ± 0.098 |
| SAGGSAGGKKTYRLEITIYNKDGKEIKKIEIEAETEEEALEAAKKLQEEAKKKGLKVEIKVEKVSAGGSAGG [r6_285_TrROS_Hall] | 4.7 ± 0.068 | 4.2 ± 0.21 | 4.72 ± 0.15 |
| SAGGSAGGKKVYPIPGATPNQFRELLDENKGTLKIYMPNGKQEEFPIKPGMEPIPGGPAWIERKSAGGSAGG [r6_304_TrROS] | -1.29 ± 0.85 | -0.834 ± 0.41 | -0.871 ± 0.36 |
| SAGGSAGGKLKINNEEIGPDKSFPLKKGKEIKVYKDYVKVFVIDPKTNKKKEYTIKLEDLKKLFSAGGSAGG [r6_940_TrMRF] | 1.39 ± 0.2 | 0.437 ± 0.073 | 1.05 ± 0.18 |
| SAGGSAGGKPDLLLEARTDLFGEEREAEVFYDPSPPVLTITLPDGTVITLPEEEVEIEKETPLISAGGSAGG [r6_185_JUSTAS] | -0.273 ± 0.065 | -0.297 ± 0.12 | -0.243 ± 0.28 |
| SAGGSAGGKPIWEFELEFPDGYKIRITYWPGYVRVEIHNPDGRQLEVNVPGKSPEDALDALLDASAGGSAGG [r6_459_TrROS] | 4.19 ± 0.19 | 3.32 ± 0.22 | 3.88 ± 0.24 |
| SAGGSAGGKPKKVKIKIEITYNKETGVVKIKIEVEVDGKTYTIEIEVKLKPGQTIEELLKKLLESAGGSAGG [r6_20_TrROS_Hall] | 4.75 ± 0.34 | 2.84 ± 0.24 | 4.46 ± 0.54 |
